Measured values taken from patent publication US20230331827A1, “POTASSIUM CHANNEL INHIBITORS” (priority 2017, published 2023).
Where a chain is given by its changes, count along the chain named.

T1: huASIC1a (Homo sapiens, UniProt P78348)
T1 construct: host or cells: HEK293
T1 sequence (P78348 1-528): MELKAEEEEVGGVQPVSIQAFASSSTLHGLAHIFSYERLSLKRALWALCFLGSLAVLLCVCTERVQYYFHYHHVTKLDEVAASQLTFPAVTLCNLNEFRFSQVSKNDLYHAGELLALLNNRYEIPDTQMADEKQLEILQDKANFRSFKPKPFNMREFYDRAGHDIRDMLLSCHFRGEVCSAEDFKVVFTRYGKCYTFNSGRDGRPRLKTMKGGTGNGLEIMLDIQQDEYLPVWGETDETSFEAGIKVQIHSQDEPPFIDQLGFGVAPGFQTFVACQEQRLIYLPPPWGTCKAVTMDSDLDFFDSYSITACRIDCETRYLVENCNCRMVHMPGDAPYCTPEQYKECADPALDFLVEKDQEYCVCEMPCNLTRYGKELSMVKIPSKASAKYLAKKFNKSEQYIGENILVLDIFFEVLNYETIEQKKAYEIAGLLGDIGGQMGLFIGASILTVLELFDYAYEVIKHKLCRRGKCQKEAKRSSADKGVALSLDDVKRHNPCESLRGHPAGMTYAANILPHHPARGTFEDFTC

B1: KB_A12_Odk2 short: truncated OdK2 in VL CDR2 of KB_A12, IgG (antibody, V domains shown)
VH: EVQLVESGGGLVRPGGSLRLSCAASGFTFSSYAMSWVRQAPGKGLEWVSAISGSGGSTYYADSVKGRFTISRDNTKNSLYLQMTSLRADDTAFYYCVKDFGPGYGTGWFDYWGPGTLVTVSS
VL: QSVLTQPPSVSEAPRQRVTITCSGSSSNIGNNAVNWYQQLPGKAPKLLIYAAGRVKCRGSPQCIQPCKDAGMRFGKCMNGKCHCTPKANSGVSDRFSAAKSGTSASLAINGLRSEDEADYYCAAWDDSLNGYVFGTGTKLTVLG
B2: KB_A12_Vm24: Vm24 in VL CDR2 of KB_A12, IgG (antibody, V domains shown)
VH: B1 VH
VL: QSVLTQPPSVSEAPRQRVTITCSGSSSNIGNNAVNWYQQLPGKAPKLLIYAAGRAAAISCVGSPECPPKCRAQGCKNGKCMNRKCKCYYCANSGVSDRFSAAKSGTSASLAINGLRSEDEADYYCAAWDDSLNGYVFGTGTKLTVLG
B3: KB_A12_HsTx1 (antibody, V domains shown)
VH: B1 VH
VL: QSVLTQPPSVSEAPRQRVTITCSGSSSNIGNNAVNWYQQLPGKAPKLLIYAAGRASCRTPKDCADPCRKETGCPYGKCMNRKCKCNRCANSGVSDRFSAAKSGTSASLAINGLRSEDEADYYCAAWDDSLNGYVFGTGTKLTVLG
B4: KB_A12_ADWX1 short: truncated ADWX-1 in VL CDR2 of KB_A12, IgG (antibody, V domains shown)
VH: B1 VH
VL: B1 VL with R58K, G59H, P61R, I64L, Q65K, M78T
B5: KB_A12_Mba-2: Mambalgin-2 in VL CDR2 of KB_A12 (antibody)
VH: B1 VH
VL: QSVLTQPPSVSEAPRQRVTITCSGSSSNIGNNAVNWYQQLPGKAPKLLIYAAGRLKCFQHGKVVTCHRDMKFCYHNTGMPFRNLKLILQGCSSSCSETENNKCCSTDRCNKANSGVSDRFSAAKSGTSASLAINGLRSEDEADYYCAAWDDSLNGYVFGTGTKLTVLGQP

Biological target: T2, human Kv1.1 (huKv1.1) (Homo sapiens, UniProt Q09470)
T2 construct: expressed in transfected cells; host or cells: Freestyle CHO-S
T2 sequence (Q09470 whole entry): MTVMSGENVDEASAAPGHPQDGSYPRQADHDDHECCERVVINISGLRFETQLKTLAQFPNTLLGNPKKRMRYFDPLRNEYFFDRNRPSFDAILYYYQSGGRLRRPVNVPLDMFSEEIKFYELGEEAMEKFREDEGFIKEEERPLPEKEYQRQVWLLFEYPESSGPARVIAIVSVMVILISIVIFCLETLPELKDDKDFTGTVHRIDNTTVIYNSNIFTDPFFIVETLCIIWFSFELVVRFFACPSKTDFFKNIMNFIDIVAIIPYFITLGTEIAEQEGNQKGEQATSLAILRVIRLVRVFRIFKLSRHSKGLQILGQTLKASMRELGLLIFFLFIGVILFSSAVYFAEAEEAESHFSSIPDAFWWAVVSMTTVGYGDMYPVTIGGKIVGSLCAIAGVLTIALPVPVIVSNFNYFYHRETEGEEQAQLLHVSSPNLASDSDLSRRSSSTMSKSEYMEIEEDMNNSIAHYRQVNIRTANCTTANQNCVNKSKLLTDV
Experiment: QPatch automated patch-clamp, CHO-S cells expressing huKv1.1 (Examples 20-21)
Type: cell-based
Settings: four-point curves of FIG. 33, Table E20
Protocol: 1. The effect of these KnotBodies on cells expressing human Kv1.1 (huKv1.1) and Kv1.3 (huKv1.3) channels was assessed using QPatch automated patch-clamp platform (Sophion).
To generate huKv1.1 expressing cells, Freestyle CHO-S cells (Cat. no. R80007, Life Technologies, California, USA) were transfected with pINT50-Tr plasmid encoding huKv1.1 gene using the MaxCyte STX (MaxCyte) transfection system. In pINT50-Tr plasmid, huKv1.1 gene is under the control of a CMV promoter. 64 µg of the plasmid DNA were added to 400 µl of Freestyle CHO-S cells (at a density of 1 × 10^8 cells/ml) in Electroporation Buffer (GE Healthcare Life Sciences, Cat. no. EPB1) in an OC-400 processing assembly (MaxCyte). Following electroporation, the cells were transferred to a well of a 24-well plate containing 200 U/ml DNAse I (Sigma, D4263) and incubated for 20 minutes at 37° C. and 5% CO2. The cells were then transferred into a 100 ml shaker flask containing 20 ml of CD Opticho Media (Thermo Fisher Scientific, Cat.No 12681-011,) supplemented with 8 mM L-Glut (Thermo Fisher Scientific, cat. no. 25030-024). The cells were incubated for 24 hours at 37° C. and 5% CO2 (and 75% humidity and shaking at 800 rpm) prior to testing using automated patch clamp electrophysiology.
(§1) For the testing of Kv1.1 and Kv1.3, CHO-S expressing huKv1.1 (described above) or CHO cells stably expressing huKv1.3 (Charles River Lab) were analysed using the QPatch electrophysiology assay in the presence or absence of the KnotBody fusions. Internal and external physiological solutions were freshly prepared prior to the assay. The extracellular solution contained 145 mM NaCl, 4 mM KC1, 2 mM CaC12, 1 mM MgC12, 10 mM HEPES and 10 mM glucose; the pH was adjusted to 7.4 with NaOH; the osmolarity was ~ 305 mOsm/L. The intracellular solution contained: KF (120 mM), KC1 (20 mM), HEPES (10 mM) EGTA (10 mM); the pH was adjusted to 7.2 with KOH; osmolarity was ~ 300 mOsm/L.
(§2) A series of depolarising voltage (channel activating) pulses were used to monitor the channel currents upon adding control (extracellular solution) to define a control baseline of current activity. To these measured control currents four, ascending concentrations of KnotBodies (including previously described KB_A12_ShK and KB_A12_KTX described in Example 8) or parental antibody isotypes (control molecules) were applied to the external bathing solution. KnotBodies KB_A12 and KB_A07 (EETI-II fusions) were used as isotype controls for the testing. From a holding voltage of -80 mV a depolarising, activating voltage pulses of +30 were applied for 300 ms, every 10 seconds. The elicited, maximum outward current values measured during the activating step for each solution exchange period, averaged (n = 3 - 6 for each concentration applied) and plotted as concentration-response curves (see FIG. 33). From these concentration-response curves IC50 values were calculated (see Table E20).
(§3) For the testing of Kv1.1 and Kv1.3, CHO-S expressing huKv1.1 (see Example 20 and below) or CHO cells stably expressing huKv1.3 (Charles River Lab) were analysed using the QPatch electrophysiology assay in the presence or absence of the KnotBody fusions - see details in Examples 19 and 20.
In addition to the CHO-S transiently expressing huKv1.1 (described in Example 20), CHO-S cells with poly-clonal stable expression of huKv1.1 cells were also made and used in the QPatch electrophysiology assay. To generate the polyclonal stable huKv1.1 cells from the transiently expressing cells described in Example 20, after a 24 hour incubation period the selection antibiotic Puromycin (catalogue no. A1 1138-03, Life Technologies, California, USA) was added to culture media. Then, for the first 14 days puromycin was at 10 µg ml-1 media; at days 15-28 puromycin was at 20 µg ml-1 media. Cell cultures were seeded at 2.5 x 10^5 cells ml^-1 into fresh culture media and puromycin twice per week through this selection growth period. […]

Going from B1 to B2, the IC50 rises from 380 nM to 1220 nM (3.2-fold). The first is the more potent here.

Going from B3 to B4, the IC50 rises from 650 nM to 1400 nM (2.2-fold). The first is the more potent here.

Biological target: T1, huASIC1a
Experiment: QPatch electrophysiology, HEK293 cells stably expressing huASIC1a
Type: cell-based
Settings: ASIC1a current at pH 6.0 after 15-20 minutes KnotBody pre-incubation, 2.3-6.6 µM
Protocol: Knottin Kv 1.3 and ASIC1a blockers expressed in the KnotBody format (see examples 6 and 7) were tested for their ability to inhibit the function of the ion channel targets. The effect of these KnotBodies on cells expressing the human Kv 1.3 (huKv1.3) or human ASIC1a channels was assessed using QPatch automated whole-cell patch-clamp electrophysiology (Sophion).
To functionally assess the ASIC1a KnotBodies, HEK293 cells stably expressing huASIC1a (Sophion) were analysed using a QPatch electrophysiology assay in the presence or absence of the KnotBody fusions (using KB_A12 as a recipient and replacing the original EETI-II donor as shown in Table 8). The “parental” KB_A12 with the EETI-II donor was used as a negative control. Internal and external physiological solutions were freshly prepared prior to the assay. The extracellular solution contained 145 mM NaCl, 4 mM KCl, 2 mM CaCl2, 1 mM MgCl2, 10 mM HEPES and 10 mM glucose; the pH was adjusted to 7.4 with NaOH (for control, resting-state pH) or 6.0 with MES (for acidic, activating-state pH); the osmolarity was ~ 305 mOsm/L. The intracellular solution contained: CsF (140 mM), HEPES (10 mM), NaCl (10 mM) and EGTA/CsOH (1 mM/5 mM); the pH was adjusted to 7.3 with CsOH; osmolarity was ~ 320 mOsm/L.
Throughout ASIC 1a recordings the recording cell membrane voltage was clamped at -60 mV. ASIC1a baseline control currents were elicited by applying external solution at activating pH 6.0 for 3000 ms. This activating pH application was repeated three further times, giving four baseline control ASIC1a currents. The recording cells were then pre-incubated with KnotBody diluted in external solution at pH 7.4 for 15-20 minutes. Following this KnotBody pre-incubation the same concentration of KnotBody in external solution at activating pH 6.0 was applied to the cell recording.
At the end of each KnotBody incubation and subsequent ASIC1a current activation, a full blocking concentration (300 nM) of the ASIC1a knottin inhibitor PcTx1 (positive control) was perfused onto the cell recording and a final activating pH 6.0 external solution was applied. The percentage remaining signal between activating pH 6.0 baseline (i.e. pre-KnotBody) and post-KnotBody incubation was determined.

In the case of B5, the “% current remaining” value is reported as “same level of current as the KB_A12 negative control”.

Same assay, conditions: ASIC1a current at pH 6.0 after 15-20 minutes KnotBody pre-incubation, 2.3-6.6 µM; listed as KB A12 Mba-2

For B5, the “% current remaining” value was 72.4%.

Biological target: T3, human Kv1.3 (huKv1.3) (Homo sapiens, UniProt P22001)
T3 construct: host or cells: CHO
T3 sequence (P22001 whole entry): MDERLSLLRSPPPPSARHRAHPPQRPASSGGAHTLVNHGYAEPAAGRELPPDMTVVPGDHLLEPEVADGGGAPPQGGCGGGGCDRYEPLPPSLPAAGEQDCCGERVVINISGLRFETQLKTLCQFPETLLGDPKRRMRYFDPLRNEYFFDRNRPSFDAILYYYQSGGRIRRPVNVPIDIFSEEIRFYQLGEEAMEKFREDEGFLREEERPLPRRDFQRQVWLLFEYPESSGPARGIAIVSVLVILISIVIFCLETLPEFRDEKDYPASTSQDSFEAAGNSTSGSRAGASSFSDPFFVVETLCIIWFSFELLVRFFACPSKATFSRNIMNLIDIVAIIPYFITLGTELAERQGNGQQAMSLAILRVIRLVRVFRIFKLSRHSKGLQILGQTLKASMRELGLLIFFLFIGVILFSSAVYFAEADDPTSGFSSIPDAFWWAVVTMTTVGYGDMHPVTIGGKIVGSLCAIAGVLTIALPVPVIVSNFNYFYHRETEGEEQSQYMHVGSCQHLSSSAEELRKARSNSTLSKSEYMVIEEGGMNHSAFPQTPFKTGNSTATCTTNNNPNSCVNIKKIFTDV
Experiment: QPatch automated patch-clamp, CHO cells stably expressing human Kv1.3 (Examples 19-21)
Type: cell-based
Settings: Kv1.1 IC50 over Kv1.3 IC50, Table E20
Protocol: The effect of these KnotBodies on cells expressing human Kv1.3 (huKv1.3) channel was assessed using the QPatch automated patch-clamp platform (Sophion, Ballerup, Denmark). For the testing of Kv1.3 ion channel currents, CHO cells stably expressing human Kv1.3 (GenBank accession number NM_002232.2; cell line catalogue number CT6133, Charles River Discovery, Cleveland, USA) were subjected to a QPatch electrophysiology assay in the presence or absence of the KnotBody fusions or the antibody isotypes (negative controls). Internal and external physiological solutions were freshly prepared prior to the assay. The extracellular solution contained 145 mM NaCl, 4 mM KC1, 2 mM CaC12, 1 mM MgC12, 10 mM HEPES and 10 mM glucose; the pH was adjusted to 7.4 with NaOH; the osmolarity was ~ 305 mOsm/L. The intracellular solution contained: KF (120 mM), KC1 (20 mM), HEPES (10 mM) EGTA (10 mM); the pH was adjusted to 7.2 with KOH; osmolarity was ~ 300 mOsm/L.
as §2, with “(including” for “(including previously described”, “KB_A12_KTX as previously” for “KB_A12_KTX”, “+30 mV” for “+30”, “32).” for “33).”, “calculated.” for “calculated (see Table E20).”
as §1, §2, §3

Going from B1 to B2, the Fold difference rises from 8 to 102.

Going from B3 to B4, the Fold difference falls from 43 to 6.

Same assay, conditions: four-point curves of FIG. 33, Table E20; read-out: Kv1.3 IC50

Going from B1 to B2, the IC50 falls from 49 nM to 12 nM (4.1-fold).

First: B3
Second: B4
The IC50 of the first is 17-fold lower: 15 nM for the first, 251 nM for the second.

Same assay, conditions: huKv1.3, four-point curves of FIG. 32, Table E19; read-out: IC50

First: B1
Second: B2
The IC50 of the first is 4-fold higher: 64 nM for the first, 16 nM for the second. The second is the more potent here.

Compared with B3, B4 is 44-fold higher in IC50: 3.9 nM for the first, 170 nM for the second.
